The values below come from publication PMC3424314 (Journal of immunology (Baltimore, Md. : 1950), 2012).

In this test the target is CD40 receptor on a stable CHO cell line (Homo sapiens, UniProt P25942). Nature of the test: flow cytometry on cells. On the technique in general: A flow cytometer gives signals particle by particle.
Sequence of CD40 receptor on a stable CHO cell line (P25942 21-277): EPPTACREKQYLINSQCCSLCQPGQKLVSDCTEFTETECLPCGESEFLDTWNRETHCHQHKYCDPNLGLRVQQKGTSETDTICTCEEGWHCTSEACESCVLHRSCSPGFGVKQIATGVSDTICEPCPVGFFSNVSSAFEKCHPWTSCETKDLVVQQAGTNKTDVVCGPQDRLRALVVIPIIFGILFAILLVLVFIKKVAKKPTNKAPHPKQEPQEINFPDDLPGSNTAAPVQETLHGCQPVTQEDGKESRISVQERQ

B1: anti-CD40 rAb with H chain C-terminal dockerin (antibody, V domains shown)
VH: EVKLVESGGGLVQPGGSLKLSCATSGFTFSDYYMYWVRQTPEKRLEWVAYINSGGGSTYYPDTVKGRFTISRDNAKNTLYLQMSRLKSEDTAMYYCARRGLPFHAMDYWGQGTSVTVSS
VL: DIQMTQTTSSLSASLGDRVTISCSASQGISNYLNWYQQKPDGTVKLLIYYTSILHSGVPSRFSGSGSGTDYSLTIGNLEPEDIATYYCQQFNKLPPTFGGGTKLEIK
Consider B1, for which the binding result is “binds”.

B2: recombinant anti-CD40 rAb (antibody, V domains shown)
VH: B1 VH
VL: B1 VL
For the molecule B2, the binding result is “binds”.
